Assay: soluble on expression in E. coli; label from the status in PepcDB or PDB records

Sequence	soluble on expression in E. coli
MSLKHYQRINELEEKKIKLRERPVIDELSKVKKLKLTGQTEALFESWRSSWDEIETRLFPDLEEVLLEAEMNTDRYKFRSATHAENDIEQMLVVIEKQMDQILGGLKELLISEEKNAKESRATKEKFAELRREVLTRGFKLGETLPYIETKLSELSESLNSYDSLTDQGDHLEAREIVIVVQKEMQVIEAQMERIPSLLHETDTILPEEMTKLRAGYEEMVRKGYYLAQMELDKEISRMKNQIDKMKKNVINLDLDEAEQGVEELHNEIDLFYDTLEHEAEARHFVKENHSPTSDKLQRQNAVSDALAEQITEVKQTYHVAEDDLAVYLKTSAKLSEAKENFEQLTALIASGEIAYSAAQDTLKEIDAALITISAEQDKFAEELRSLRKDELEARDDAERMRRAIITLDRKMERERLPGLPEEYLSLREHMGESINALEKRLEEKPLNMKAVSQDWRIAEEDLTHLTEKAEEMMENVRLVEHVIQYANRYRLRNKELADELVQAENHFYNDYQYKKALEIAVTALEKVETGAFKKVEKAYESKVSVDEGHHHHHH	soluble
MMRLANGIVLDKDTTFGELKFSALRREVRIQNEDGSVSDEIKERTYDLKSKGQGRMIQVSIPASVPLKEFDYNARVELINPIADTVATATYQGADVDWYIKADDIVLTKDSLEHHHHHH	not soluble
MLIEGANSHGSGILLQRHGNTYVILTAYHVIEKGGQYTVKTVDGQRYAVRPSSIRRLPSVDLATLEIESNRDYTLATLGNSGEAVEGMPVFVAGFPAQEASVLGGIYQFTEGRLTANASRPIQDGYALVYSNPTLPGMSGGPVLDENGRLIGIHGSADIASTLVQEGSGASTVFVKRGFNLGIPIHTYLGLATPSRQTTVLPALASMKAADYFLAAEVAFRRKNFAAAIENYSQAIARNPNYSEAYLGRAVAQIFALVPNQDFDQLGEELGTKYLSRLTQGNPLLKDAFPPNPPTPLLETFMRTMAERPGTIQPDIAKAIALNPQYTEAYGVSSFLNLLLGNFGNAIAESERALALRPNNSDLQMIHSLALFLSGDFRRSIAVFDRLITANPQNTDYHLLRGVAAFMMGDYALSRPSWTALTQLTPRNPMPFALRGVTYLLEENFKASLPDLRQAAELYRQQGDMQSYNQMMQAIRQIESRLEHHHHHH	not soluble
MSYDANLTKYMDFLVKKTKNAAEPTTFKEIFDEYSRLDPDRSTYSMCYDKFHHRLAPIMNELNTYSIRERVRVMLTMGGKVSKDFLTTIEKLGTVQLDEKRRILKYASKDGKFKIEGARSEFMDFLIQQTRDAVRPMTSTSIAKEFCRIKDRQVSVDTFNKKFRRNLAPNMSRWSSYLLGDRIRMMFVLKGTVRTDFLAEIEKSGTVQLDDQRRIVRYASNDGMIELEEKTSGVKRRRSTKSSNTPTKRREITENELSDTDDVEVMEIVDGYVEQESASFDFEELVNREASYNLDQGHLYREILEAPLLENRDSKFNPFNAKSGRQAEVQRSGTFLNESEGTSTNAQESFVFRGFLKQEPVFEQFHIQNMSNNLVNLPIPPEIEETPVQEGHHVEPSGITGSDGIRLHKFLNSLELMLTSLESDTLNDLMQEIEEIRRRTDEILPSELVITTLQTFFLGITRKFRPETSAPSKSAKECLRIFKYALLWLKNPLLYDLQKRVQDEIENHEADGKVLLIADVQQGIRNILFTVV	not soluble
MGSDKIHHHHHHMTWLPLNPIPLKDRVSMIFLQYGQIDVIDGAFVLIDKTGIRTHIPVGSVACIMLEPGTRVSHAAVRLAAQVGTLLVWVGEAGVRVYASGQPGGARSDKLLYQAKLALDEDLRLKVVRKMFELRFGEPAPARRSVEQLRGIEGSRVRATYALLAKQYGVTWNGRRYDPKDWEKGDTINQCISAATSCLYGVTEAAILAAGYAPAIGFVHTGKPLSFVYDIADIIKFDTVVPKAFEIARRNPGEPDREVRLACRDIFRSSKTLAKLIPLIEDVLAAGEIQPPAPPEDAQPVAIPLPVSLGDAGHRSS	not soluble
MDAVSPLDAYERAVQRGFQPDQAQLQAVQQLQACYLALTESRGQAQGVYLWGPVGRGKTWLMDRFFESLNVPARRQHFHHFMRWVHKRMFELMGTPQPLTVVAKELARDVRVMCFDELFVTDIGDAVILGGLLQVMFEQGVVLVCTSNQPPDQLYSHGHNRERFLPAVAAIQKYMKVVAVDGGEDHRLHPGQLHQRYWVAQAGQPSALQGIFEALSAGQPVHDSQVMLGYRSINVVEHSDTAVWCRYRDLCEQPLAAMDFIALCDRFSVILLSEVPVLGAVQREAKIARGTEDGVEQVTAGDRELPQLSPNDDGVRRFIALVDECYDRRIPLYVEAPVPMDQLYTQGYLSFAFRRTLSRLQEMQLERFTESLEHHHHHH	not soluble
MSLSSAYQLVIFDWEGTIADTLGVILHTVATEAKMLGFGDIDPYQARKYVDLGLVQAVKKTLPNLTAGQQEDLLQAVQSAMISRPTEVRLIPGVLEFIQQLHQAKVDLAIATNKGHNSLIRALQATELDQLFKVTRSAGQVPAKPCPQMLEEIMEEFGRDPSSTLMIGDSTTDMEMAKRINVNAIGMDFYHQQEDALKAAGALAVFDDYKLLSAYLMLPEAEGHHHHHH	soluble
MLKKRKLGRRIGEIQAGEKLVFQAAIEDKDLLLYLGLTDDANPLYIQHDYASQTPFGKPVVPPVMLTGMITSAVSKYLPGPGSYITRQDLRFLRPVYHYETLEFLLEVADVDEAGHCVTLSVMATRGAETVLDGTLSVCPPHTLPRLDGRVLENF	not soluble
DALESKKINEALLKQGEALINQLNDRARADTVRYAEEVVKTAAERVKEASQNLTDYRIANGVFDLKAQSEVQMGLVSKLQDELIVIQTQLDQVKAVTPENPQIPGLQAREQSLRKEIDQQLRAISGGGHSSLSNQAAEYQRVYLENQLAEQQLAAAMTSLESAKVEADRQQLYLEVISQPSLPDLAHEPKR	soluble
MILPPIPTPFDREGRLDEEAFRELAQALEPLVDGLLVYGSNGEGVHLTPEERARGLRALRPRKPFLVGLMEETLPQAEGALLEAKAAGAMALLATPPRYYHGSLGAGLLRYYEALAEKMPLFLYHVPQNTKVDLPLEAVEALAPHPNVLGIKDSSGDLSRIAFYQARLQEFRVYTGHAPTFLGALALGAEGGILAAANLAPRAYRALLDHFREGRLAEAQELQKKLFPLGDLLAKGGVPLLKQALRHLGLPAGYPRPPYPAESPLWERFLPVLEGLKEEGWVL	soluble
MYALEIEQLRKTYAGGFEALKGISLQVKKGDFYALLGPNGAGKSTTIGIISSLVNKTSGKVTVFGYDLDSQLELAKQKLGLVPQEFNFNPFETVEQIVLQQAGYYGVPKALAKERAKKYLTQLDLWEKRSERARNLSGGMKRRLMIARALMHEPQLLILDEPTAGVDIELRRSMWEFLKQINAQGVTIILTTHYLEEAEMLCRHIGIIQRGELIENTTMKSLLGKLHVETFVLDVDGNAPIAPLQGVVKQQMVEGSLEIELEKSQGINHVFTQLTEQGVKVLSMRNKVNRLEELFVSIVNSGKRG	not soluble
MLIVGINGSPKKEGNTKYLINTVLEEAKSQGVETMVLEVGELLNSVKNPFCVVCSNPCSSICYKGTKLEEAYEILKKADAIVMGSPVYFGSVSAQLKAFFDKTRKLRSEKALYNKFACGVTVGGARFGGQETTMKALHDIMLVHGMTIVGDGYVGDDCGHHGVCAQQPADKDEFAIKRAKILGRRLVDVCKKAGA	not soluble
MAHHHHHHMKNSQMERKKYSVHNLVKLINERNKQNVRNKQPAVGADGTTSINAAGDGLDGETHSNFFHVEKNGQVGRKDKAGFPAEDGEIGGEYDVRDGSVDEEDECDGEAVRDGEAAPDEERADCTDGADTTLPPGGGGEVKLFMFDYNECQNQKCSCKKLYRFKKIKKAPINKKFKGIVLTPFCEKFFSINDKATVENFGLSVIDCSWKSLDLLKKAKFANQRKLPYIIAVNSINYGKPYKLSCLESLAFCLYVCGYNKQCTDILNIYKWSSSFVNLNGELLDMYKLCNTHEEVKSVEDEFIHNSLSEKEKRKEIDQYRVIYEDGYL	soluble
MHTFILLLTVLCAGAYTQFTANGQAAILNVHNTLRSRIAKGTYVARGTVKHAASDMLKMKWLRSLATSSQIYANRCPTGHSNMIGVGENLYWYWTSGTITNIDQFGAMASAAWEKEFQDYGWSSNTLTMSLFNSGVGHATQMAWAKTNLIGCGVKNCGMDTNGMNKVAVVCHYQPQGNYLNQNIYTSGTTCSKCPAGTSCEAATGLCV	not soluble
KKVIIIINPTSGGEAALDYKESLESKAKEYFDHVETKITQRAKDATHFAQNASEEKYDAVIVFGGDGTVNEVISGISEKNHIPKLGIIPGRTGNLITKLLEIN	not soluble
MTADANKSESLLCMDKAREAIKSGDTDKARRMLLKAKKLDPGQNIEFLTKKIDDMTNNTSSSSQTSSSRASEERSYAHDDHYDDPNLRNRKARSPVKKNGKTEPEPKQRSASRTPKLGVDYTSEQKELVERIRHCKDYYEILKIDKKASDDDIRKEYRKLALKLHPDKCRAPHATEAFKALGNAYAVLSDTDK	not soluble
MGSDKIHHHHHHMSIEAKFKKLGTDNAPGQEVRQSAAGLEALIRGAPIEGRPVDFSHGDVDAHEPTPGAFDLFSAGVQSGGVQAYTEYRGDLGIRDLLAPRLAAFTGAPVDARDGLIITPGTQGALFLAVAATVARGDKVAIVQPDYFANRKLVEFFEGEMVPVQLDYVSADETRAGLDLTGLEEAFKAGARVFLFSNPNNPAGVVYSAEEIGQIAALAARYGATVIADQLYSRLRYAGASYTHLRAEAAVDAENVVTIMGPSKTESLSGYRLGVAFGSRAIIARMEKLQAIVSLRAAGYSQAVLRGWFDEAPGWMEDRIARHQAIRDELLHVLRGCEGVFARTPQAGSYLFPRLPKLAVAPAEFVKILRLQAGVVVTPGTEFSPHTADSVRLNFSQDHEAAVAAARRIVTLVERYRA	not soluble
MAELRVLVAVKRVIDYAVKIRVKPDRTGVVTDGVKHSMNPFCEIAVEEAVRLKEKKLVKEVIAVSCGPAQCQETIRTALAMGADRGIHVEVPPAEAERLGPLQVARVLAKLAEKEKVDLVLLGKQAIDDDCNQTGQMTAGFLDWPQGTFASQVTLEGDKLKVERAIDGGLETLRLKLPAVVTADLRLNEPRYATLPNIMKAKKKKIEVIKPGDLGVDLTSKLSVISVEDPPQRTAGVKVETTEDLVAKLKEIGRI	soluble
MNLRTQKFHMYFKQWIELYKEGAVRPVTYQKYQMSHKHLVTLAPDLHMDELKRRTYQELINEFAANHEKQTTLDFHHHLKAAILDALDEGILEQDPTRKVLEHHHHHH	not soluble
MVRVPLTAEELERGQRLGELLRSARGDMSMVTVAFDAGISVETLRKIETGRIATPAFFTIAAVARVLDLSLDDVAAVVTFGPVSTS	soluble
MTARDFLEFRERLAPASGFQSAQLREIEILLGLEDTQRISIGNGCSYRDALKLPGGAPSSSAQRVEARAADGPSFKHCLYDWLSRVPIDGSNAPADITRFLEAYLASLRAENDRRLKLASSGLAAAEIEQLRARYAAEDAGAQAFLLAEDDPQASDAERETRRAGRAAMLFIESYRELPQLAWPHALLESVLELEQAMLIWRQRHARMVERFIGRRIGTGGSSGVDYLDQTARYRIFTELWTVRSLLLRKAAVPQIRSSAGYGFVMEGFALEHHHHHH	not soluble
LDSKTLARRVLVAQMLATANNVYPTSQTFREKLANLYGAQFSTCISKKGKVHIVDIDISFVSDKFILEGKSILGEIIHFLRAALFKPLISVEHYQSKSFDLEKEN	not soluble
MLLEISIYCRGGQGGVTAARILAATAMLQGYYSQSMPQFGPERRGAEVRAFLRISDERIRRKCPITYPDVVILFDLKLSFNGNPETVVVNCNGSSFTGHGNVFALDATEITRRYGLVNAGWPILGPAMAGTAAKALDLDPRCLLEAIRLELGDKADRSVKAAEEAYRVVECV	not soluble

— the DeepSol protein solubility set
